Experiment [1] addresses T1, IL-6 receptor (IL-6R), in Jurkat cell membrane extract (UniProt P08887 20-468).
T1 construct: IL-6 receptor in membrane protein or membrane extract of Jurkat cells; also called IL-6Rα; source: Jurkat cells, membrane extract
T1 sequence (looked up): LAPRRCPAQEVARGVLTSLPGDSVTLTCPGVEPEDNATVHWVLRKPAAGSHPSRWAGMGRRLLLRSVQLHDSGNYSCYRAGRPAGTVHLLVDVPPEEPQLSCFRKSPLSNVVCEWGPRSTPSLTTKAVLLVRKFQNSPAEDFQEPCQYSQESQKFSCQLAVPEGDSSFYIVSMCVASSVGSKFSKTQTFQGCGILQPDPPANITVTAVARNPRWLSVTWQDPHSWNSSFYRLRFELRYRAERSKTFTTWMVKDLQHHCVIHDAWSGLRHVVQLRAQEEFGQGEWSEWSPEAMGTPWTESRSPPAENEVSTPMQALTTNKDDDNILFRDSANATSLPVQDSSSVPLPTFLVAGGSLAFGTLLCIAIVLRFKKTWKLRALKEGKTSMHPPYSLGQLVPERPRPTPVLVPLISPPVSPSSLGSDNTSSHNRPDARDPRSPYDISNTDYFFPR
Put plainly: radioligand binding; saturation: equivalent quantities of Jurkat cell membrane extract with 2-fold serial dilutions of 125I-CTRP4; nonspecific binding with 500-fold excess of CTRP4; 24 hours at 4°C, 25% PEG, γ counter. Conditions: one partner purified.

The target in experiment [2] is T1, IL-6 receptor (IL-6R), in Jurkat cell …. In words: radioligand binding; competition: Jurkat cell membrane extract and 125I-CTRP4 with different concentrations of unlabeled CTRP4, OSM or IL-6; 24 hours at 4°C, 25% PEG, γ counter. Conditions: one partner purified.

B1: 125I-CTRP4 (natural protein)
chain: not shown
modifications: 125I label (chloramine T)
notes: rhCTRP4 protein purified from CTRP4-CHO cells; also called radio-iodinated CTRP4; 125I-labeled CTRP4
As a reminder, the Kd is the equilibrium constant for the complex coming apart. Consider B1, for which the Kd in experiment [1] turned out to be 3.94 nM.

B2: rhCTRP4 protein (unlabeled) (natural protein)
chain: not shown
notes: rhCTRP4 protein purified from CTRP4-CHO cells; also called unlabeled CTRP4; recombinant CTRP4 protein
Usually IC50 stands for the midpoint of a concentration-inhibition curve. A lower IC50 goes with higher potency. As for B2, the IC50 in experiment [2] came out at 77.2 nM.

These data come from PMC10866667, “CTRP4/interleukin-6 receptor signaling ameliorates autoimmune encephalomyelitis by suppressing Th17 cell differentiation” (The Journal of Clinical Investigation, 2023).
